Source: publication PMC3962104

Molecular target: T1, S. cerevisiae Ump1, C-terminally 6His-tagged (wild type) (S. cerevisiae), P38293
T1 chain: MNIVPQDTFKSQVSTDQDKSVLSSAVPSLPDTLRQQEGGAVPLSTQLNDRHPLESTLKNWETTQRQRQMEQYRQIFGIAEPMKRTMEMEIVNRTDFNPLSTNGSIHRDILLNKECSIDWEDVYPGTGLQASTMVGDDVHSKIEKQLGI
Test: non-reducing SDS-PAGE; ion-exchange peak fractions loaded in sample buffer without (-) or with (+) 10 mM DTT, 15% SDS-PAGE, Coomassie Blue; the 36 kDa species is seen when no reducing agent is added
Settings: remark: other sources report otherwise

- stoichiometry N: 2
B1: S. cerevisiae Ump1, C-terminally 6His-tagged (wild type), P38293 1-148 (natural protein)
chain: MNIVPQDTFKSQVSTDQDKSVLSSAVPSLPDTLRQQEGGAVPLSTQLNDRHPLESTLKNWETTQRQRQMEQYRQIFGIAEPMKRTMEMEIVNRTDFNPLSTNGSIHRDILLNKECSIDWEDVYPGTGLQASTMVGDDVHSKIEKQLGI
